Reference: patent US12319742

B1: SL-061mut213 (antibody, human IgG1, kappa, V domains shown)
VH: QVQLQQSGPGLVKPSQTLSLTCAISGDSVSSYSAAWNWIRQSPSRGLEWLGRTYYRSKWFNDYAVSVKSRITINPDTSKNQFSLQLNSVTPEDTAVYYCARDYYGSESYYNRGYYYYGLDVWGQGTTVTVSS
VL: AIQLTQSPSSLSASVGDRVTITCRASPSISSALAWYQQKPGKAPKLLMYDESSQEGSVPSRFSGSGSGTDFTLTISSLQPEDFATYYCQQFNEYPLTFGGGTKVEIKR
B2: NH46 (whole antibody) (antibody, human IgG1, kappa, V domains shown)
VH: QVQLVQSGSEVKKPGASVRVSCKVSGSTVKELSMHWVRQAPGKGLEWMGGYDPEDGESIFAQKFQGRVNMTEDRSTDTAYMELSSLRSEDTAVYYCATDLNWEDAFDVWGQGTMVTVSS
VL: QSVLTQPPSVSAAPGQKVTISCSGSGSNIGNYYVAWYQQFPGTAPKLLIYDNNKRPSGIPDRFSGSKSGTSATLGITGLQTGDEADYYCGTWDTSLTAGDIYVFGTGTKVTVLR
B3: NH24-35 (antibody) (antibody, V domains shown)
VH: EVQLVESGGGSVQPGGSLRLSCAASGFTFSSYGMSWIRQAPGKGLEWVSYISSSGGHTYYADSVKGRFTISRDNAKNSLYLQMNSLRAEDTAVYYCARYSGAFDHWGQGTLVTVSS
VL: DIVMTQSPSSLSASVGDRVTITCQASQDITNYLSWYQQKPGKAPKLLINDASNLETGVPSRFSGSGSGTDFTFTISSLQPEDIATYYCQQYDTLPITFGQGTRLEIKR
B4: NH24-162 (antibody, V domains shown)
VH: EVQLVESGGGSVQPGGSLRLSCAASGFTFSSYGMSWVRQAPGKGLEWISYISSSGGHTYYADSVKGQFTISRDNAKNSLYLQMNSLRAEDTAVYYCARGSGSFDYWGQGTLVTVSS
VL: DIVMTQSPSSLSASVGDRVTITCQASQDISNYLSWYQQKPGKAPKLLISDASNLETGVPSRFSGSGSGTDFTFTISSLQPEDIATYYCQQYDNLPITFGQGTRLEIKR
B5: NH24-72 (antibody, V domains shown)
VH: EVQLVESGGGSVQPGGSLRLSCAASGFTFSSYGMNWIRQAPGKGLEWITYISSSGGHTYYADSVKGRFTISRDNAKNSLYLQMNSLRAEDTAVYYCARGQGPFEYWGQGTLVTVSS
VL: DIVMTQSPSSLSASVGDRVTITCQASQDISNYLSWYQQKPGKAPKLLINDASNLETGVPSRFSGSGSGTDFTFTISSLQPEDIATYYCQQYDNLPITFGQGTRLEIKR

Experiments:
[1] = biological target: human TNFRSF25 over-expressed on CHOK1 cells (cDNA sequence NP_683866) (human) (UniProt Q93038); assay: flow cytometry on CHOK1-TNFRSF25+ cells (lower panel), 1 h at 4 C, APC anti-human Fc
[2] = biological target: human TNFRSF25 over-expressed on CHOK1 cells (cDNA sequence NP_683866) (human) (UniProt Q93038); assay: flow cytometry on CHOK1-TNFRSF25+ cells; APC anti-human Fc
[3] = biological target: human TNFRSF25 over-expressed on CHOK1 cells (cDNA sequence NP_683866) (human) (UniProt Q93038); assay: flow cytometry competition (upper panel); CHOK1-TNFRSF25+ cells with antibody 30 min at 4 C, then biotinylated human TL1A-Fc at 156 nM, PE-streptavidin

Binder	EC50 (read off the curve) [1] [nM]	EC50 [2] [nM]	IC50 [3] [nM]
B1	0.003		
B2		0.05	49
B3			4
B4			49
B5			8
